# Tests used:
# [1] = Enzyme stability of EcCD series fusion protein and yCD protein in FBS or transferrin; assay type: in vitro ADME; conditions: 37° C.; for enzyme activity: 24 hours
# Procedure: FIGS. 12A-12C show an enzyme stability analysis of EcCD series fusion protein and yCD protein.
# Previous literature reports indicate that the thermostability of E. coli cytosine deaminase (EcCD) is better than that of yCD. […] In order to simulate the environment of the protein in the cell killing test, the EcCD series fusion protein and the yCD protein are cultured in 10% FBS at 37° C. for 0, 1, 2, 4, 24 hours, and then determine the enzyme kinetics. It can be observed from the results that the yCD protein is cultured in 10% FBS for 1 hour, the enzyme activity is reduced to 80%, and when cultured for 2 and 4 hours, the enzyme activity is reduced to 50% and 20%, respectively, and the enzyme activity is lost after culturing for 24 hours, while the EcCD series fusion protein is similar to the culture in 100% FBS, which can maintain the original enzyme activity (see FIG. 12B). The literature points out that the metal ion of the enzyme catalytic center will affect the stability of the enzyme. In the yCD protein involved in the enzyme reaction, the metal ion of the enzyme catalytic center has a considerable relationship with the enzyme activity. The protein associated with transporting metal ions in serum is transferrin. It is speculated that transferrin may be related to the enzyme activity of yCD protein. Therefore, the EcCD series fusion protein and yCD protein are co-cultured respectively with transferrin at a concentration of 3 mg/ml (normal concentration 2.1-3.4 mg/mL) at 37° C. for 0, 1, 2, 4, 24 hours, then determine the enzyme kinetics (see FIG. 12C), it is known from the results that the longer the yCD protein is cultured in the transferrin, the lower the enzyme activity will be. […] This trend is similar to the culture at 10% in FBS. It is speculated that the factor of reducing the activity of yCD protein in FBS has a great relationship with transferrin. The stability of yCD protein in FBS is poor, and the stability of EcCD series fusion protein is better, so the industrial use of EcCD series fusion protein in both sexual and therapeutic applications is better than that of yCD protein, and it is also confirmed that the mutation of RGD4C peptide and D314A will not affect the enzyme stability of EcCD protein.
# [2] = Enzyme kinetic analysis of EcCD series fusion proteins, substrate cytosine; assay type: biochemical
# From the text: FIGS. 11A-11D show the activity and kinetics analysis of EcCD series fusion protein enzymes, and the EcCD series proteins are combined with 5-FC at different concentrations for reaction. Respectively calculate the 5-FU formation reaction rate shown in FIG. 11A, 5-FC consumption reaction rate shown in FIG. 10B, uracil formation reaction rate shown in FIG. 10C and cytosine consumption reaction rate shown in FIG. 10D, substitute Michaelis-Menten formula, and calculate the base mass (Kcat) and Km value catalyzed by each mol enzyme in unit time. […]
# [3] = Enzyme kinetic analysis of yCD series proteins after DTPA modification, marking and purification; assay type: biochemical
# From the text: The enzyme activity of yCD is not affected by DTPA modification.
# FIGS. 24A-24B show the kinetic curve of yCD series protein modified, labeled and purified by DTPA. The enzyme activity of the two proteins is not affected by the labeling conditions. After adding EDTA with a 10-fold molar excess of protein, and it is competitively purified, In-DTPA-yCD compared with the original enzyme activity.
# The curve and enzyme kinetic parameters (see FIG. 18 and Table 13) are fitted by the […] protein enzyme kinetics through the Michaelis-Menten formula in the Graph prism program.
# Before the protein is labeled by radioisotope, its enzyme function must be determined, and based on the original enzyme function, it should be examined whether it will be affected during the radioactive marking process. The curve and enzyme kinetic parameters of protein are fitted by the Michaelis-Menten formula in the Graph prism program. […] Whether the yCD and RGD4C-yCD protein detected by the same method will be affected under the conditions of DTPA modification, marking and purification. […] After the completion of the radioactive metal mark, it is necessary to add EDTA of 10-fold protein Moire number and react at room temperature for 1 hour to compete for the radioactive metal isotope indium which is not chelated on DTPA. The EDTA in this step also has the chance to chelate the metal zinc ion of the enzyme catalytic center, the enzyme activity is impaired, so it is necessary to analyze the enzyme activity of In-DTPA-yCD and In-RGD4C-yCD protein after competition with EDTA. After the EDTA competitive reaction is completed, the enzyme kinetics analysis can be carried out by reducing the EDTA molecule weight through membrane centrifugation method and by replacing the solution with pH 7.0. […] The curve and receptor binding ability parameters of the protein and integrin αvβ3 are fitted under the conditions of DTPA modification, marking and purification by the One site-Specific binding formula in the Graph prism program (see FIG. 25 and Table 18). […] Although the two proteins after marking are greatly affected by the enzyme activity, they still have good binding ability to the integrin αvβ3 receptor. In consideration of the indispensability of EDTA for radiochemical purity, it retains a considerable amount of enzyme activity. In addition, the effect of integrin αvβ3 receptor binding ability is minimal, in combination of cell uptake, biodistribution and angiography experiment, focusing on the evaluation of target results, and the subsequent biological experiment is still carried out by the marking and purification conditions.
# integrin αvβ3 receptor = integrin αvβ3 receptor (Homo sapiens, UniProt P05106+P06756); experiment: ELISA binding assay of yCD series recombinant protein to integrin αvβ3 receptor; conditions: ELISA
# Sequence of integrin αvβ3 receptor (P06756 31-889 limits assumed): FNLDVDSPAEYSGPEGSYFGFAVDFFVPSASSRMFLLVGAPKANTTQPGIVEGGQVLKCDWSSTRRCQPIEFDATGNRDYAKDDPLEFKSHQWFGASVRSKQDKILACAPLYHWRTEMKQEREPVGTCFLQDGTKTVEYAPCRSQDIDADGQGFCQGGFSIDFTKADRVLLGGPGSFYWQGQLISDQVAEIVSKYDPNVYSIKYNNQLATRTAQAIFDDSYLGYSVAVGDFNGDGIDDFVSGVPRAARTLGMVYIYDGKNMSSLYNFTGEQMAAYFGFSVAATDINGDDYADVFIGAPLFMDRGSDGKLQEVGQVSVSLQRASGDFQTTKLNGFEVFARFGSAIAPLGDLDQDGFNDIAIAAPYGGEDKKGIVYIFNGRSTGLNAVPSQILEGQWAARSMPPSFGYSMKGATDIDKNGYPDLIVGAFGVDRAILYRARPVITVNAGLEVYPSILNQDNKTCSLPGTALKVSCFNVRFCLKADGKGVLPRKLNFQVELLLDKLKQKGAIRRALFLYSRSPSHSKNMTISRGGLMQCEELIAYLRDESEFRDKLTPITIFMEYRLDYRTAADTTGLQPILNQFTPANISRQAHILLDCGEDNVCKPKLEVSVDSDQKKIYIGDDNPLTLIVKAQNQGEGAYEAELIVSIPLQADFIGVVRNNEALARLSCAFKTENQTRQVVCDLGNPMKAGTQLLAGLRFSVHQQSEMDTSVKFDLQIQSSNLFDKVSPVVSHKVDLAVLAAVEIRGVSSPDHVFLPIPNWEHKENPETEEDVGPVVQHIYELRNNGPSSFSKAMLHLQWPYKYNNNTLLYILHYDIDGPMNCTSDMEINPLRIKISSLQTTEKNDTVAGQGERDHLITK
# Sequence of integrin αvβ3 receptor (P06756 891-1048 partner limits assumed): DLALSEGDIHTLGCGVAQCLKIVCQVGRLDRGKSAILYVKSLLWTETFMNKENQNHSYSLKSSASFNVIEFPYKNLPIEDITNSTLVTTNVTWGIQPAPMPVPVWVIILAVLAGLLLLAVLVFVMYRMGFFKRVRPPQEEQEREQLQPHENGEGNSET
# Sequence of integrin αvβ3 receptor (P05106 27-788): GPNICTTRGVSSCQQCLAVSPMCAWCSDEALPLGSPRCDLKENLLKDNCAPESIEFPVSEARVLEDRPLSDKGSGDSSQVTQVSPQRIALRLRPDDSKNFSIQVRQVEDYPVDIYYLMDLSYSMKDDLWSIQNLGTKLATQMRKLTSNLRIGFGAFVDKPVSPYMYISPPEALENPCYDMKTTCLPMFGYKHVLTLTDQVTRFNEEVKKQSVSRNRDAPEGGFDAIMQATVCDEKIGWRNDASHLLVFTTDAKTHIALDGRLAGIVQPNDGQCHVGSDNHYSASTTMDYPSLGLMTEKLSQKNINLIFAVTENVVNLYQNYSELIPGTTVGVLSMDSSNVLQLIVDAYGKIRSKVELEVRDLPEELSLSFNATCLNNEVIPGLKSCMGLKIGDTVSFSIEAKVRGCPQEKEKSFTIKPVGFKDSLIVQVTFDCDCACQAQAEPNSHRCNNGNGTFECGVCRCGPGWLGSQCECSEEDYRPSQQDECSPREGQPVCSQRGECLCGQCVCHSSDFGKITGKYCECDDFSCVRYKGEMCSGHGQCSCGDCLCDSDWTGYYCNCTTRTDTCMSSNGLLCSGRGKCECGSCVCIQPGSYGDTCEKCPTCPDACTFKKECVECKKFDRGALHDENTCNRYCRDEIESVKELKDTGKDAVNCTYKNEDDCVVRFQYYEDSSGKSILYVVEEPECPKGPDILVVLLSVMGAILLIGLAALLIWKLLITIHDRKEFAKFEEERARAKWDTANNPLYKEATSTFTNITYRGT
# Procedure: FIGS. 3A-3B show the binding affinity and specificity of RGD4C-yCD, yCD, RGD4C-yCD/UPRT and yCD/UPRT proteins to integrin αvβ3. The binding affinities of RGD4C-yCD, yCD, RGD4C-yCD/UPRT and yCD/UPRT proteins to integrin αvβ3 were determined by ELISA assay using horseradish peroxidase (HRP)-tagged anti-His6 antibody (FIG. 3A). The dissociation constant Kd is obtained by prism software with curve fitting method. […] (*compared with untreated RGDfv group, P<0.05)
# The specific binding ability of RGD4C-yCD, yCD, RGD4C-yCD/UPRT and yCD/UPRT recombinant protein to integrin αvβ3 receptor is analyzed by ELISA binding assay, plotted with prism software and made with curve fitting to find the dissociation constant Kd value.
molecule,measurement,setting,value
"yCD: yeast cytosine deaminase (yCD) (SEQ ID NO: 1), recombinant protein without target molecule (protein, yCD) MVVTGGMASKWDQKGMDIAYEEAALGYKEGGVPIGGCLINNKDGSVLGRGHNMRFQKGSATLHGEISTLENCGRLEGKVYKDTTLYTTLSPCDMCTGAIIMYGIPRCVVGENVNFKSKGEKYLQTRGHEVVVVDDERCKKIMKQFIDERPQDWFEDIGELEHHHHHH",enzyme activity,[1]; 3 mg/ml transferrin,close to the loss of activity
same,enzyme activity (Kcat/Km relative to 0 hours),"[1]; 10% FBS, 1 hour",80%
same,enzyme activity (Kcat/Km relative to 0 hours),"[1]; 10% FBS, 2 hours",50%
same,enzyme activity (Kcat/Km relative to 0 hours),"[1]; 10% FBS, 4 hours",20%
same,enzyme activity,[1]; 10% FBS,lost
same,Kcat,[2]; cytosine consumption,55.6 ± 8.5 s⁻¹
same,Km,[2]; cytosine consumption,4.7 ± 1.3 mM
same,Kcat,[2]; uracil generation,54.6 ± 1.3 s⁻¹
same,Km,[2]; uracil generation,3.9 ± 0.2 mM
same,Km,[3],0.84 ± 0.0719 mM
same,Vmax,[3],264.1 ± 8.256 µM/min
same,binding to integrin αvβ3,integrin αvβ3 receptor,cannot be bound

# — patent US10947270B2, “Targeted prodrug cytosine deaminase fusion carrier and application thereof” (National Yang-Ming University, priority 2015, dated 2021)
